Results as given in patent publication US20200254065A1, “LONG-ACTING GLP-2 ANALOGS” (OPKO Biologics Ltd., priority 2019, published 2020).
Square brackets hold non-standard residues; d marks the D form. Nle = CCCC[C@H](N)C(=O)O

T1: GLP-2 receptor (UniProt O95838 1-553, limits assumed)
T1 sequence (looked up): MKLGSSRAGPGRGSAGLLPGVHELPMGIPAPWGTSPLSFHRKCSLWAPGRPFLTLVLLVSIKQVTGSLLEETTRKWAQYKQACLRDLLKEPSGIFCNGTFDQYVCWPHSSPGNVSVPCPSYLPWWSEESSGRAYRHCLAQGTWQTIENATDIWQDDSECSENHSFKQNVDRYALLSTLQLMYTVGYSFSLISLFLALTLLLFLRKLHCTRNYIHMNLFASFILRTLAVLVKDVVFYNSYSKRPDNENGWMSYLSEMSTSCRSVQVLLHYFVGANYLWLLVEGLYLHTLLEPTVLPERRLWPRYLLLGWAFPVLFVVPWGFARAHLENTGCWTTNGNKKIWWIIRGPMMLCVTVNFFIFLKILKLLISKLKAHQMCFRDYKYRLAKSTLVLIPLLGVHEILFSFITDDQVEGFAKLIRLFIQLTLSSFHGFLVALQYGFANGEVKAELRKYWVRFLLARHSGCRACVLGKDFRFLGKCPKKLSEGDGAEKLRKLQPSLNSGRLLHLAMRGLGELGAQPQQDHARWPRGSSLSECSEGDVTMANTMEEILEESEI

B1: GLP-2 Variant #3 (peptide)
peptide: H-HGEGSFSDE[Nle][dH]TILDNLAARDFINWLIQTKITD-NH2
SMILES: CCCC[C@H](NC(=O)[C@H](CCC(=O)O)NC(=O)[C@H](CC(=O)O)NC(=O)[C@H](CO)NC(=O)[C@H](Cc1ccccc1)NC(=O)[C@H](CO)NC(=O)CNC(=O)[C@H](CCC(=O)O)NC(=O)CNC(=O)[C@@H](N)Cc1c[nH]cn1)C(=O)N[C@H](Cc1c[nH]cn1)C(=O)N[C@H](C(=O)N[C@H](C(=O)N[C@@H](CC(C)C)C(=O)N[C@@H](CC(=O)O)C(=O)N[C@@H](CC(N)=O)C(=O)N[C@@H](CC(C)C)C(=O)N[C@@H](C)C(=O)N[C@@H](C)C(=O)N[C@@H](CCCNC(=N)N)C(=O)N[C@@H](CC(=O)O)C(=O)N[C@@H](Cc1ccccc1)C(=O)N[C@H](C(=O)N[C@@H](CC(N)=O)C(=O)N[C@@H](Cc1c[nH]c2ccccc12)C(=O)N[C@@H](CC(C)C)C(=O)N[C@H](C(=O)N[C@@H](CCC(N)=O)C(=O)N[C@H](C(=O)N[C@@H](CCCCN)C(=O)N[C@H](C(=O)N[C@H](C(=O)N[C@@H](CC(=O)O)C(N)=O)[C@@H](C)O)[C@@H](C)CC)[C@@H](C)O)[C@@H](C)CC)[C@@H](C)CC)[C@@H](C)CC)[C@@H](C)O
B2: GLP-2 Variant #7 (peptide)
peptide: H-HGEGSFSDE[Nle]NTILDYLAARDFINWLIQTKITD-OH
SMILES: CCCC[C@H](NC(=O)[C@H](CCC(=O)O)NC(=O)[C@H](CC(=O)O)NC(=O)[C@H](CO)NC(=O)[C@H](Cc1ccccc1)NC(=O)[C@H](CO)NC(=O)CNC(=O)[C@H](CCC(=O)O)NC(=O)CNC(=O)[C@@H](N)Cc1c[nH]cn1)C(=O)N[C@@H](CC(N)=O)C(=O)N[C@H](C(=O)N[C@H](C(=O)N[C@@H](CC(C)C)C(=O)N[C@@H](CC(=O)O)C(=O)N[C@@H](Cc1ccc(O)cc1)C(=O)N[C@@H](CC(C)C)C(=O)N[C@@H](C)C(=O)N[C@@H](C)C(=O)N[C@@H](CCCNC(=N)N)C(=O)N[C@@H](CC(=O)O)C(=O)N[C@@H](Cc1ccccc1)C(=O)N[C@H](C(=O)N[C@@H](CC(N)=O)C(=O)N[C@@H](Cc1c[nH]c2ccccc12)C(=O)N[C@@H](CC(C)C)C(=O)N[C@H](C(=O)N[C@@H](CCC(N)=O)C(=O)N[C@H](C(=O)N[C@@H](CCCCN)C(=O)N[C@H](C(=O)N[C@H](C(=O)N[C@@H](CC(=O)O)C(=O)O)[C@@H](C)O)[C@@H](C)CC)[C@@H](C)O)[C@@H](C)CC)[C@@H](C)CC)[C@@H](C)CC)[C@@H](C)O
B3: GLP-2 Variant #5 (peptide)
peptide: H-HGEGSFSDE[Nle]NTILDYLAARDFINWLIQTKITD-NH2
SMILES: CCCC[C@H](NC(=O)[C@H](CCC(=O)O)NC(=O)[C@H](CC(=O)O)NC(=O)[C@H](CO)NC(=O)[C@H](Cc1ccccc1)NC(=O)[C@H](CO)NC(=O)CNC(=O)[C@H](CCC(=O)O)NC(=O)CNC(=O)[C@@H](N)Cc1c[nH]cn1)C(=O)N[C@@H](CC(N)=O)C(=O)N[C@H](C(=O)N[C@H](C(=O)N[C@@H](CC(C)C)C(=O)N[C@@H](CC(=O)O)C(=O)N[C@@H](Cc1ccc(O)cc1)C(=O)N[C@@H](CC(C)C)C(=O)N[C@@H](C)C(=O)N[C@@H](C)C(=O)N[C@@H](CCCNC(=N)N)C(=O)N[C@@H](CC(=O)O)C(=O)N[C@@H](Cc1ccccc1)C(=O)N[C@H](C(=O)N[C@@H](CC(N)=O)C(=O)N[C@@H](Cc1c[nH]c2ccccc12)C(=O)N[C@@H](CC(C)C)C(=O)N[C@H](C(=O)N[C@@H](CCC(N)=O)C(=O)N[C@H](C(=O)N[C@@H](CCCCN)C(=O)N[C@H](C(=O)N[C@H](C(=O)N[C@@H](CC(=O)O)C(N)=O)[C@@H](C)O)[C@@H](C)CC)[C@@H](C)O)[C@@H](C)CC)[C@@H](C)CC)[C@@H](C)CC)[C@@H](C)O

The binders below were run against T1, GLP-2 receptor (assay: cell-based or functional assay).
B1 was tested, and the “EC50 Ratio to Teduglutide, CBA” value was 2.5 fold and the “EC50 [nM], Cell Based Assay (CBA), cells overexpressing the GLP-2 receptor” value (shortened to “EC50 [nM], Cell Based Assay (CBA)”) was 14.2 nM. For B2, the “EC50 Ratio to Teduglutide, CBA” value was 3 fold and the “EC50 [nM], Cell Based Assay (CBA)” value was 17.2 nM. For B3, the “EC50 Ratio to Teduglutide, CBA” value was 2.4 fold and the “EC50 [nM], Cell Based Assay (CBA)” value was 13.6 nM.
